The record followed here is PMC9352680, “A comprehensive thermodynamic model for RNA binding by the Saccharomyces cerevisiae Pumilio protein PUF4”.

One may read the Kd as the concentration at which binding is half-saturated.

The chains are these.
T1: PUF4 RNA-binding domain (Saccharomyces cerevisiae, UniProt P25339 537-888)
T1 sequence: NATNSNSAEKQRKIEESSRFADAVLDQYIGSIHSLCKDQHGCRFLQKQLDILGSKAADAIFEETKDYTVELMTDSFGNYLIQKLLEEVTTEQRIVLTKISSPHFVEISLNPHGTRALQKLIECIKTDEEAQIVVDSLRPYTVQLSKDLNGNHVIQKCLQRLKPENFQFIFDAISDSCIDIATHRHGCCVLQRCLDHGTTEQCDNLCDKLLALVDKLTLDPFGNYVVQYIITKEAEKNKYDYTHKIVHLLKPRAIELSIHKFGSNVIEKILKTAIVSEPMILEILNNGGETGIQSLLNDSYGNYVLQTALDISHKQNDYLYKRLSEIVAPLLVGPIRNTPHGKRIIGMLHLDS

B1: Id_ii_S1_P5E.2_K5.1_C5.2_[T-1C]_H5.1_A5.1_F5.1_T5.2_[A12G] (ssRNA)
RNA: UCUCUUCCUGUAUUAUUAUGUCUCUU
B2: Id_ii_S1_P5E.2_K5.1_C5.2_[T-1C]_H5.1_A5.1_F5.1_T5.2_[A12C] (ssRNA)
RNA: UCUCUUCCUGUAUUAUUAUCUCUCUU
B3: Id_ii_S1_P5E.2_K5.1_C5.2_[C-2T]_[T-1A]_H5.1_A5.1_F5.1_T5.2_[T11A]_[A12C] (ssRNA)
RNA: UCUCUUUAUGUAUUAUUAACUCUCUU
B4: Ib_S1_P4E.1_K4.1_C4.1_H4.1_A4.1_[T5C]_[T7A]_F4.1_T4.1 (ssRNA)
RNA: UCUCUUUGUACAAUAUCUCUU
B5: Id_ii_S1_P5E.2_K5.1_C5.2_[T-1C]_H5.1_A5.1_F5.1_T5.2_[T11A] (ssRNA)
RNA: UCUCUUCCUGUAUUAUUAAAUCUCUU
B6: Id_ii_S1_P5E.2_K5.1_C5.2_[T-1C]_H5.1_A5.1_F5.1_T5.2_[A12T] (ssRNA)
RNA: UCUCUUCCUGUAUUAUUAUUUCUCUU
B7: Id_ii_S1_P5E.2_K5.1_C5.2_[C-2T]_[T-1C]_H5.1_A5.1_F5.1_T5.2_[A12T] (ssRNA)
RNA: UCUCUUUCUGUAUUAUUAUUUCUCUU
B8: Id_ii_S1_P5E.2_K5.1_C5.2_[C-2A]_H5.1_A5.1_F5.1_T5.2_[A12C] (ssRNA)
RNA: UCUCUUAUUGUAUUAUUAUCUCUCUU
B9: Id_ii_S1_P5E.2_K5.1_C5.2_[T-1A]_H5.1_A5.1_F5.1_T5.2_[T11G]_[A12C] (ssRNA)
RNA: UCUCUUCAUGUAUUAUUAGCUCUCUU
B10: Id_ii_S1_P5E.2_K5.1_C5.2_[T-1A]_H5.1_A5.1_F5.1_T5.2_[A12T] (ssRNA)
RNA: UCUCUUCAUGUAUUAUUAUUUCUCUU
B11: Ic_S1_P4E.1_K4.1_C4.1_H4.1_A4.1_[T5A]_[T7C]_F4.1_T4.1 (ssRNA)
RNA: UCUCUUUGUAAACUAUCUCUU
B12: Id_ii_S1_P5E.2_K5.1_C5.2_[C-2T]_[T-1A]_H5.1_A5.1_F5.1_T5.2_[T11G]_[A12C] (ssRNA)
RNA: UCUCUUUAUGUAUUAUUAGCUCUCUU
B13: Id_ii_S1_P5E.2_K5.1_C5.2_[C-2A]_[T-1C]_H5.1_A5.1_F5.1_T5.2_[T11A] (ssRNA)
RNA: UCUCUUACUGUAUUAUUAAAUCUCUU
B14: Id_ii_S1_P5E.2_K5.1_C5.2_[C-2T]_H5.1_A5.1_F5.1_T5.2_[T11A]_[A12T] (ssRNA)
RNA: UCUCUUUUUGUAUUAUUAAUUCUCUU
B15: Id_ii_S1_P5E.2_K5.1_C5.2_[C-2T]_H5.1_A5.1_F5.1_T5.2_[A12C] (ssRNA)
RNA: UCUCUUUUUGUAUUAUUAUCUCUCUU
B16: Ic_S1_P4E.1_K4.1_C4.1_H4.1_A4.1_[T5A]_[T7G]_F4.1_T4.1 (ssRNA)
RNA: UCUCUUUGUAAAGUAUCUCUU
B17: Id_ii_S1_P5E.2_K5.1_C5.2_[C-2T]_H5.1_A5.1_F5.1_T5.2_[T11A]_[A12G] (ssRNA)
RNA: UCUCUUUUUGUAUUAUUAAGUCUCUU
B18: Id_ii_S1_P5E.2_K5.1_C5.2_[C-2A]_H5.1_A5.1_F5.1_T5.2_[A12G] (ssRNA)
RNA: UCUCUUAUUGUAUUAUUAUGUCUCUU
B19: Id_ii_S1_P5E.2_K5.1_C5.2_[C-2T]_[T-1C]_H5.1_A5.1_F5.1_T5.2_[T11A] (ssRNA)
RNA: UCUCUUUCUGUAUUAUUAAAUCUCUU
B20: Id_ii_S1_P5E.2_K5.1_C5.2_[C-2A]_H5.1_A5.1_F5.1_T5.2_[T11A] (ssRNA)
RNA: UCUCUUAUUGUAUUAUUAAAUCUCUU
B21: Ib_S1_P4E.1_K4.1_C4.1_H4.1_A4.1_[A6G]_[T7G]_F4.1_T4.1 (ssRNA)
RNA: UCUCUUUGUAUGGUAUCUCUU
B22: Ib_S1_P4E.1_K4.1_C4.1_H4.1_A4.1_[A6G]_[T7C]_F4.1_T4.1 (ssRNA)
RNA: UCUCUUUGUAUGCUAUCUCUU
B23: Id_ii_S1_P5E.2_K5.1_C5.2_[T-1G]_H5.1_A5.1_F5.1_T5.2_[T11A]_[A12G] (ssRNA)
RNA: UCUCUUCGUGUAUUAUUAAGUCUCUU
B24: Id_ii_S1_P5E.2_K5.1_C5.2_[C-2T]_H5.1_A5.1_F5.1_T5.2_[T11G]_[A12C] (ssRNA)
RNA: UCUCUUUUUGUAUUAUUAGCUCUCUU
B25: Id_ii_S1_P5E.2_K5.1_C5.2_[T-1G]_H5.1_A5.1_F5.1_T5.2_[T11G]_[A12T] (ssRNA)
RNA: UCUCUUCGUGUAUUAUUAGUUCUCUU
B26: Id_ii_S1_P5E.2_K5.1_C5.2_[T-1A]_H5.1_A5.1_F5.1_T5.2_[A12C] (ssRNA)
RNA: UCUCUUCAUGUAUUAUUAUCUCUCUU
B27: Id_ii_S1_P5E.2_K5.1_C5.2_[C-2T]_[T-1A]_H5.1_A5.1_F5.1_T5.2_[T11G]_[A12T] (ssRNA)
RNA: UCUCUUUAUGUAUUAUUAGUUCUCUU
B28: Id_ii_S1_P5E.2_K5.1_C5.2_[T-1A]_H5.1_A5.1_F5.1_T5.2_[T11G]_[A12T] (ssRNA)
RNA: UCUCUUCAUGUAUUAUUAGUUCUCUU
B29: Id_ii_S1_P5E.2_K5.1_C5.2_[C-2A]_H5.1_A5.1_F5.1_T5.2_[T11G]_[A12C] (ssRNA)
RNA: UCUCUUAUUGUAUUAUUAGCUCUCUU

The data set has as its target T1, PUF4 RNA-binding domain. The data set can be described thus: Mg; RNA-MaP; 20 mM Na-HEPES pH 7.4, 30 mM KOAc, 0.75 mM MgCl2, 0.1% Tween-20, 5% glycerol, 0.1 mg/mL BSA, 2 mM DTT; 25 C; 0.0125-409.6 nM protein. The note with it: tags: N-His6-TEV cleaved; C-SNAP kept, Cy3B-labelled; label: tethered on chip by stalled RNA polymerase.
Consider B1, for which the affinity, expressed as Kd, was 6.12 nM.

Consider B2, for which the Kd came to 6.56 nM.

Molecule B3 showed a Kd of 13.9 nM.

Turning to B4, the Kd was determined as 1.29 nM.

Take B5: the affinity, expressed as Kd, was 18.8 nM.

Turning to B6, the Kd is 7.47 nM.

For B7, binding was put at a Kd of 5.27 nM.

As for B8, the Kd was found to be 6.61 nM.

For B9, the Kd was 3.39 nM.

In turn, B10 gave a Kd of 9.94 nM.

The molecule B11 returned a Kd of 2.01 nM.

B12 displayed a Kd of 4.56 nM.

Molecule B13 came in with a Kd of 23.8 nM.

B14 had a Kd of 8.7 nM.

As to B15, the Kd was 5.34 nM.

As to B16, the Kd was determined as 7.21 nM.

Consider B17, for which the Kd is 17 nM.

For the molecule B18, the Kd was determined as 10.1 nM.

Take B19: the Kd was 8.35 nM.

As for B20, the Kd was determined as 13.4 nM.

Consider B21, for which the Kd turned out to be 14.6 nM.

The molecule B22 had a Kd of 7.91 nM.

In turn, B23 yielded a Kd of 14.8 nM.

Take B24: the Kd came to 4.26 nM.

With B25, the Kd came out at 3.02 nM.

Take B26: the Kd was determined as 7.59 nM.

B27: the Kd was 4.38 nM.

As to B28, the Kd came out at 3.5 nM.

On to B29, for which the Kd was determined as 4.53 nM.
